Where a chain is given by its changes, count along the chain named.
B1: HB9: murine anti-EBV gp350 mAb, IgG2a κ; SEQ ID NO: 116 / 117 (antibody, V domains shown)
VH: GGLVKPGGSLKLSCAASGFTFSSYTMSWVRQTPEKRLEWVATISSGGSYIYYPDSVKGRFTISRDNAKNTLYLQMSSLKSEDTAIYYCTREDFYYGSSYGFFDVWGAGTTVTVSSAKTTAPSVYPLAPVCGDTTGSSVTLG
VL: LSLPVSLGDQASISCRSSQSIVHSNGNTYLEWYLQKAGQSPKLLIYKVSNRFSGVPDRFGGSGSGTDFTLKISRVEAEDLGVYYCFQGSHVPYTFGGGTKLEIKRADAAPTV
modifications: heavy chain mAb HB9; light chain mAb HB9
B2: HB22: murine anti-EBV gp350 mAb, IgG1 κ; SEQ ID NO: 130 / 131; non-nAb (antibody, V domains shown)
VH: PGLVAPSQSLSITCTVSGFSLTNYGIHWVRQPPGKGLEWLVVIWSDGSTIYNSALKSRLSISKDNSKSQVFLKMNSLQTDDTAMYYCARNYYGNSYPAWFAYWGQGTLVTVSAAKTTPPSVYPLAPGSAAQTNSMVTLG
VL: B1 VL with A37P, G60S, K71R, Y93W
modifications: heavy chain mAb HB22; light chain mAb HB22
notes: murine anti-EBV gp350 mAb, IgG1 κ; non-nAb
B3: HB3: murine anti-EBV gp350 mAb, IgG2a κ; SEQ ID NO: 106 / 107 (antibody, V domains shown)
VH: AELVRPGASVKLSCKASGYTFASYWMQWVKQWPGQGLEWIGEINPNNGHTNYNERFKNKASLTVDKSSSTAYMQLSSLTSEDSAVYYCARNLYYYGRPDYWGQGTSVTVSSAKTTAPSVYPLAPVCGDTTGSSVTLG
VL: SSLSASLGDRVTISCRASQDIGNYLNWYQQKPDGTIKLLIYYTSRLHSGVPSRFSGSGSGTDYSLTISNLEEEDIATYFCQQGNTLPPTFGGGTKLEIKRADAAPTV
modifications: heavy chain mAb HB3; light chain mAb HB3
B4: HB2: murine anti-EBV gp350 mAb, IgG2a κ; SEQ ID NO: 104 / 105 (antibody, V domains shown)
VH: PELKKPGETVKISCKASGYTFTAYSMHWVKLTPGKGLKWMGWINTKTGEPTYADDFKGRFAFSLETSASTAYLQINNLKNEDTATYFCAPYGYALDYWGQGTSVTVSSAKTTPPSVYPLAPGSAAQTNSMVTLG
VL: AILSASPGEKVTMTCRATSSVNYMHWYQQKPGSSPKPWIYATSNLASGVPARFSGSGSGTSYSLTISRVEAEDAATYYCQQWSSNPPTFGAGTKLELKRADAAPTV
modifications: heavy chain mAb HB2; light chain mAb HB2

Key:
[1] = biological target: T1, purified EBV gp350/220 (recombinant EBV gp350 ectodomain) (Epstein-Barr virus, UniProt P03200); test: Indirect ELISA on recombinant EBV gp350 ectodomain; assay type: binding; settings: purified antibodies 10 μg/ml
T1 construct: purified EBV gp350 ectodomain protein (AA 4-863); purchased Immune Technology Corporation
Protocol: Briefly, immunoplates (Costar 3590; Corning Incorporated) were coated with 50 μl of 0.5 μg/ml recombinant EBV gp350 ectodomain (Immune Technology Corporation) diluted in 1× phosphate buffered saline (PBS, pH 7.4) and incubated overnight at 4° C. After washing three times with 1×PBS containing 0.05% (v/v) Tween 20 (washing buffer), plates were blocked with 100 μl washing buffer containing 2% (w/v) bovine serum albumin (BSA) (blocking buffer) then incubated for 1 h at room temperature and washed as above. 100 μl of hybridoma supernatant or 50 μl of 10 μg/ml purified mAbs was added to each well (in triplicate) and incubated for 2 h at room temperature. […] The plates were washed as described above, followed by incubation with 50 μl of goat anti-mouse IgG HRP-conjugated secondary antibody (1:2,000 diluted in 1×PBS) at room temperature for 1 h. The plates were washed again and 100 μl of chromogenic substrate 2,2′-azino-bis (3-ethylbenzothiazoline-6-sulphonic acid) (ABTS, Life Science Technologies) was added. The reaction was stopped using 100 μl of ABTS peroxidase stop solution containing 5% sodium dodecyl sulfate (SDS) in water. The absorbance was read at an optical density of 405 nm using an ELISA reader (Molecular Devices). All experiments were performed in triplicate and confirmed in three independent experiments.
ELISA binding of anti-gp350 and anti-gH/gL to soluble gp350 and gH/gL proteins was performed. Soluble EBV gp350 and gH/gL proteins were used as the target antigen at 0.5 μg/ml. 1× phosphate buffered saline (PBS) was used as negative (not shown) control. Bound antibodies were detected using HRP-conjugated anti-mouse or anti-human IgG (1:2,000).

[2] = biological target: T2, gp350 protein on gp350 expressing CHO cells (Epstein-Barr virus, UniProt P03200); test: Flow cytometry of CHO cells stably expressing EBV gp350; assay type: binding; settings: concluded from flow cytometry and immunoblot
T2 construct: stably co-transfected with full-length pCAGGS-gp350/220 and pCI-puro vector; expressed in transfected cells; host or cells: CHO cells
Protocol: To assess the ability of purified anti-gp350 mAb to detect surface expression of EBV gp350 protein by flow cytometry, CHO cells that stably express EBV gp350 were harvested and stained with purified anti-gp350 (10 μg/ml), followed by AF488 goat anti-mouse IgG secondary antibody. Flow cytometric analysis was performed on a C-6 FC (BD Biosciences) and data was analyzed using FlowJo Cytometry Analysis software (FlowJo, LLC) as described (47). All the experiments were independently repeated three times.
These novel antibodies were analyzed by flow cytometric analysis for surface expression of gp350 protein on 10^6 CHO cells transfected with 1 μg of pCAGGS-gp350. gp350 expressing cells were resuspended in PBS, stained with anti-gp350 mAb, which detects the gp350 ED, followed by secondary Ab goat anti-mouse conjugated to AF488. Additionally, western blot analysis was conducted on untransfected and pCAGGS-gp350 transfected CHO lysate. Anti-gp350 mAb 72A1 was used as a positive control (1:100) and anti-gp350 hybridoma clone supernatants were used at 1:50, and anti-mouse secondary antibody was used at 1:2000.
Flow cytometric analysis of gp350 and gH/gL specificity was performed. CHO wild type cells and gp350 or gH/gL-expressing CHO cells were stained with primary antibodies, followed by secondary goat anti-mouse or anti-human conjugated to AF488. Unstained cells and cells stained with secondary goat anti-mouse or anti-human conjugated to AF488 alone, were used as negative controls.

[3] = system: EBV-eGFP infection of Raji cells; test: EBV neutralization assay in Raji cells; assay type: cell-based, Epstein-Barr virus; settings: for neutralization of EBV in Raji cells (in words): spin-column purified mAbs, 12.5, 25, 50 and 100 μg/ml
Protocol: EBV neutralization assay was performed in Raji cells as previously described (47). Briefly, purified individual anti-gp350 mAbs were incubated with purified AGS-EBV-eGFP (titer calculated to infect at least 8% of HEK293 cells seeded in 100 μl of serum-free DMEM) for 2 hours at 37° C. To represent EBV infection of B cells, the pre-incubated anti-gp350 mAbs/AGS-EBV-eGFP were used to infect 5×10^5 Raji cells seeded in a 96-well plate for 2 hours at 37° C. Neutralizing 72A1 and non-neutralizing 2L10 anti-gp350 mAbs served as positive and negative controls, respectively. Infected cells were washed three times with PBS to remove any unbound viruses and antibodies. Washed, infected cells were incubated in 96-well plates at 37° C. for 48 hours post-infection and the number of eGFP+ (infected) cells was determined using flow cytometry. All dilutions were performed in quintuplicate and the assays were repeated three times. Antibody EBV neutralization activity was calculated as: % neutralization=(EBValone−EBVmAb)/(EBValone)×100.
However, this antibody was recently reported to be a mixture of both functional and non-functional antibodies (50). […] The percentage of eGFP+ cells (percent infection) was determined using flow cytometry as described (47). The nAbs 72A1 and E1D1 were used as positive controls, whereas the anti-gp350 non-neutralizing mAb 2L10 and KSHV gH/gL mAb 54A1 were used as negative controls. Because HB4, HB13, HB15, HB16, HB19, HB21, and HB23 were confirmed to be polyclonal based on isotyping and/or sequence data, they were eliminated from further consideration in the neutralization assay. HB18 was not used in neutralization experiments because it was identical to HB8.
The purified eGFP-tagged-EBV was titered in Raji cells to determine percent EBV infection using a range of volumes (50-250 μl) (FIG. 5A). Then initial neutralization of EBV was conducted in Raji cells using purified mAbs at various concentrations (12.5, 25, 50, and 100 μg/ml).
EBV-eGFP+ cells were enumerated using flow cytometry.

[4] = biological target: T3, EBV gp350 stably expressed on CHO cells (Epstein-Barr virus, UniProt P03200); test: Epitope mapping by competitive cell binding assay with biotinylated mAbs; settings: biotinylated m72A1 1 μg/ml
T3 construct: stably co-transfected with full-length pCAGGS-gp350/220 and pCI-puro vector; expressed in transfected cells; host or cells: CHO cells
Protocol: To evaluate conformation epitope mapping of the selected mAbs, competitive binding assays were conducted using biotinylated mAbs. A one-step antibody biotinylation kit (MACS Miltenyi Biotec) was used to biotinylate the mAbs. Approximately 1×10^5 CHO cells that stably expressed EBV gp350 were incubated for 2 hours with serially diluted ([…]) unlabeled competitor mAbs and non-specific anti-KSHV gH/gL 54A1 mAb. After being washed with PBS, the cells were incubated for 2 hours in the presence of 1 μg/ml biotinylated mAbs. To determine maximum binding, cells in which the biotinylated mAb was added in the absence of unlabeled mAbs were included in the assay. Cells were washed with PBS, followed by incubation for 1 hour with anti-biotin AF488 at a dilution of 1:500. After the final wash in PBS, cells were resuspended in 1% paraformaldehyde and analyzed by flow cytometry as described above. Percentage of inhibition was calculated as: 100−[(% fluorescent cells with competitor mAb/% fluorescent cells without competitor mAb)×100]. The complete prevention of binding of a biotinylated mAb by its unlabeled counterpart was used as a validation of the assay, as previously described (84).
At least seven unique CD21 binding epitopes on EBV gp350 have been predicted (Table 3).

T2 sequence (P03200 whole entry): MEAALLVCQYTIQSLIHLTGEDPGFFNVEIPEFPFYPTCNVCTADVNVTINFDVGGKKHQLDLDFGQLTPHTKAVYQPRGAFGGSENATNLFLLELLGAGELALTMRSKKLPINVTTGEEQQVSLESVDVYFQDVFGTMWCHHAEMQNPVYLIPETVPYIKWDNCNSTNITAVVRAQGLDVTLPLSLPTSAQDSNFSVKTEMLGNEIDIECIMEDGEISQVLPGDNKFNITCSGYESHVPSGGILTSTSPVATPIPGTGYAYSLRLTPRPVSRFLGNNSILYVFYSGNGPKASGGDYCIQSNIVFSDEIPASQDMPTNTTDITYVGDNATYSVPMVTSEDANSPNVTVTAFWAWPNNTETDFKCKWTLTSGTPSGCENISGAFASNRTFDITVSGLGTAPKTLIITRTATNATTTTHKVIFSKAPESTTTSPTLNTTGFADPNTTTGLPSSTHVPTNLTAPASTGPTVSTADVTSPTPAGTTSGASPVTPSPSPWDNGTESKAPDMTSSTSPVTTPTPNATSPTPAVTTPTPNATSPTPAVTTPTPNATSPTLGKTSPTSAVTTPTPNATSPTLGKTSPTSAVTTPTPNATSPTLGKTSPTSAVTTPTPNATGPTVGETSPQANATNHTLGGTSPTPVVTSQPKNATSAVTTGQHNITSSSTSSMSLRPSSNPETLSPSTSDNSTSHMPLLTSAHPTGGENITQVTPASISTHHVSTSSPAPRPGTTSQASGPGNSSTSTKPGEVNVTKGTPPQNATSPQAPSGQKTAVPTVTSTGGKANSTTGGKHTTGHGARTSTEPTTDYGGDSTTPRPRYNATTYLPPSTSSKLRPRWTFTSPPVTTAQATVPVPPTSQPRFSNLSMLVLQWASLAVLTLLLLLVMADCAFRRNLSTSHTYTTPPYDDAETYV
T3 sequence (P03200 whole entry): as above
T1 sequence (P03200 4-863): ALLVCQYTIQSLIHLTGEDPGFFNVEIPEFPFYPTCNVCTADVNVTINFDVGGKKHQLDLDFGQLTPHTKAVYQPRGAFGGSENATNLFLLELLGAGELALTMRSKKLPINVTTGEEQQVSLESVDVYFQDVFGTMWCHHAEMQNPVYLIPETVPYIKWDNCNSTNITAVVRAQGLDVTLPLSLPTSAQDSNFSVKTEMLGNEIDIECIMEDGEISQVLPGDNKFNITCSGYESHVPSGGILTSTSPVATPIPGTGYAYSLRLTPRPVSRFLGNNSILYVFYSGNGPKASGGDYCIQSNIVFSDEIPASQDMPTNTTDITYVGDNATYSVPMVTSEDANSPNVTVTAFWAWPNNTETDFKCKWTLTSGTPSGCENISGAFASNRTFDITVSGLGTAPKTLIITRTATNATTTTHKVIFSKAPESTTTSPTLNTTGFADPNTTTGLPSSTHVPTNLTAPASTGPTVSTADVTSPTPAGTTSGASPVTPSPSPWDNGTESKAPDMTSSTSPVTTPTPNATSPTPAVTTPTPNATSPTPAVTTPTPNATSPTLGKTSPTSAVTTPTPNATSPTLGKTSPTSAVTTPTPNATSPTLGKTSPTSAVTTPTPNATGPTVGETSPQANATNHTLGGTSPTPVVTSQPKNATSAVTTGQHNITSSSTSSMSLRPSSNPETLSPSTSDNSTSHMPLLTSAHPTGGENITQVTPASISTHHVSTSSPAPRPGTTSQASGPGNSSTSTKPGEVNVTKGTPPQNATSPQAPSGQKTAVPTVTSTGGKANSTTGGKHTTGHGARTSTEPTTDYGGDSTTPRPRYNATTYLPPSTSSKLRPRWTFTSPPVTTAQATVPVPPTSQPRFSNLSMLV

Molecule | ELISA binding to purified EBV gp350/220 [1] | type of gp350 epitope recognized (linear / conformational) [2] | neutralization of EBV in Raji cells (in words) [3] | % inhibition of biotinylated nAbs (biotinylated m72A1) ([4]; unlabeled mAb 67.5 μg/ml) [%] | % inhibition of biotinylated nAbs (biotinylated m72A1) ([4]; unlabeled mAb 125 μg/ml) [%] | % inhibition of biotinylated nAbs (biotinylated m72A1) ([4]; unlabeled mAb 250 μg/ml) [%] | % inhibition of biotinylated nAbs (biotinylated m72A1) ([4]; unlabeled mAb 500 μg/ml) [%] | blocking of EBV infection of Raji cells (in words) ([3]; protein G and size-exclusion chromatography-purified mAbs, 12.5-100 μg/ml)
B1 | + | recognized both linear and conformational epitopes | failed to neutralize EBV infection | – | – | – | – | –
B2 | + | – | dose-dependent neutralization | 9 | 16 | 3 | 10 | Neither HB17, HB22, nor 54A1 blocked EBV infection
B3 | + | only recognized conformational epitopes | failed to neutralize EBV infection | – | – | – | – | –
B4 | + | only recognized conformational epitopes | failed to neutralize EBV infection | – | – | – | – | –
